experiment: yeast display, Sf9 membrane polyspecificity reagent, FACS + sequencing; frameworks hold sequencing errors
Summary of the method: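 Synthetic nanobody libraries on Saccharomyces cerevisiae BJ5465 were galactose-induced for 36–48 hours, stained 1 hour at 4 °C with 10% biotinylated, detergent-solubilized Sf9 membrane reagent and enriched on streptavidin microbeads. FACS then separated cells into low and high (top ~1%) gates by anti-HA (expression) and streptavidin (reagent binding) fluorescence. Genes were colony-PCR amplified, MiSeq 2 × 250 sequenced and CDR-length filtered. A clone's polyreactivity label is that of its gate of origin.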

| Sequence | polyreactivity (PSR sort gate) |
| --- | --- |
| QVQLVESVGGLVQAGGSLRLSCASSGITFWYYAMGWYRQAPGKERELVAAISYSGDSTYYADSVKGRFTISRDNAKNTVYLQMNSLKPEDTAVYYCAARTRAGAWTSKYHDYWGQGTQGTVSS | high polyreactivity |
| QVQLVESVGGLVQAGGSLRLSCASSGYIFAYYGMGWYRQAPGNERELVAAISWSGGSTDYADSVKGRFTISRDNAKNTGYLQMNRLKPEDTAVYYCATRKYADRESDYWGQVTQVTVSS | high polyreactivity |
| QVQLVESVGGLVQAGGSLRLSCPASGFIFSGHTMGWYRQAPGKERELVAAITSGGGRTYYADSVKGRFTISRDNAKNTVYLQMNSLKPEDTAVYYCNTAFVYEYDYWGQGTQVTVSS | high polyreactivity |
| QVQLVESVGGLVQAGGSLRLSCSASGSTFTGYAMGWYRQARGNEREFVATITKRGGRTYYADSVKGRFTISRDNAKNTVYLQMNSLKPEDSAVYYCARDQGKLFVPYDYWGKGTQVTVSS | high polyreactivity |
| QVQLVESVGGLVQAGGSLRLSCSASGTFRRNVKGWYRQAPGKERELVAAIRSGGSTYYADSVKGRFTISRDNAKHTVFLQMNSLKPEDTAVYYCASDRPGHSFYDEWYRYDSWGQGTQVTVSS | low polyreactivity |
| QVQLVESVGGLVQAGGSLRLSGAASGSTFGRYAMGWSRQAPGKEREFVANISWSDGSTNYADSVKGRFTISRDHAKNTVYFQMNSLKPEDTAVYYCATGLGYTAFGKEVYDWHDYWGQGTQVTVSS | low polyreactivity |
| QVQLVESVGGLVQAGGSLRLSSDASGRTFYSNAMGWYREAPGKERELVAGMNIGGGSTYYADSVKGRFTISRDNAKNTVYLQMYSLIPEATAVYYCAALRWGAYRHGYWGQGTQVTVSW | high polyreactivity |
| QVQLVESVGGLVQAGGSLRLTCAACGVTFSYNTMGWYRQAPGKERELVAAISRSGGRTYYADSVKGRFTISRDNAKNTVYLQMNSLKPEDTAVYYCARYSVTGFGANSGPEMDYWGHGTQVTVSS | high polyreactivity |
| QVQLVESVGGLVQAGGSLRLTCAASVITQRFNSMGWYRQAPGKEMELVAAISSGTNTYYADSVKGRFAISRDNAKNTVYLQMNSLKPEDTAVYYCADTLGYYTSGRSYQRYDYWGHGTQVTVSS | low polyreactivity |
| QVQLVESVGGLVQAGGSLRLTCAASVSIIRYNAMGWYRQAPGKERELVAAITKGAGSTYYADSVKGRFTISRDNAKNTVYLQMNSLKPEDTAVYYCAAAGGTSRRTIYTAFYYWGQGTQVTVSS | high polyreactivity |
| QVQLVESVGGLVQAGGSLSLSCAASGRIFVWYTMGWYRQAPGKEREFVASINGGGNTNYADSVKGRFTISRDNAKNTVYLQMNSLKPEDTADYYCAREYFGEMDYWGHGTQVTVSS | low polyreactivity |
| QVQLVESVGGLVQAGGSLSLSSAASGRTFGNYAMGWYRQAPGKERELVADITRRGGSTSYADSVKGRFTISRDNAKNTVYLQMTSLKTEDTAVYYCNKAAEGSSHYDYWGLGTQVTVSS | low polyreactivity |
| QVQLVESVGGLVQAGGTLRLSCAATEGTIRSNAMGWYRQAPGKESELVAAISRGGSTYYADSVKGRFTISRDNAKNTVYLQMNSLKPEDTAVYYCNVAYYRSGHDNDYWGQGTQVTVSS | high polyreactivity |
| QVQLVESVGGLVQAGVSLRLSSPATGSTIYFYAMGWYRQEPGKERELVAAISGSGGRKYYADSVKGRFTISRDNAKNTVYLQMNSLKPEDTAVYYCAAEWFPYSEREFLYYYWGQGTQVTVSS | high polyreactivity |
| QVQLVESVGGLVQAVGSLRLSCAASGNTFYRYAMGWYIQAPGKERELVAAITWRSTYYADSVKGRFTISRDNAKNTVYLQMNSLKPEDTAVYYCAVSVRPYVIYLYDYWGQGTQVTVSS | high polyreactivity |
| QVQLVESVGGLVQEGGSLRLSCAASGSIRYAMGRYRQAPGKERELDAAISGRGGNTYYADSVKGSFTISRDNAKNTVYLQMNSLKPEDTAVYYCATRGNRVLTGTRYDYWGQGTQITVSS | high polyreactivity |
| QVQLVESVGGVVQAGGSLRLSCAASGFTFKYYDMGWYRQAPGKERELVAAISRRGGSTSYADSVKGRFTISRDNAKNTVYLQMNSLKPEDTAVYYCAADSSFERSSDYWGHGTQVTVSS | high polyreactivity |
| QVQLVESVGSLVQAGVSLRLSCAASGFILYANAMGWYRQAPGKERELGAAISRGTSTYYADSVKGRFTISRDNAKNTVYLQMTSLKPEDTAVYYCATSSYRPWGGYYWGQGTQVTVSS | high polyreactivity |
| QVQLVESVGVLDQAGGSLRLSCAASGFTFVRYAMGWYRQAPGKERELVAAISGSGGRTYYADSVKGRFTISRDTAKNTVYLQLNSLKPEDTAVYYCAAVYLVTRGARYEYWGQGTQVTVSS | high polyreactivity |
| QVQLVESVGVLVQAGGSLRLSCAASGRTFYRNAVGWYRQAPGKERELVAAISRSGTRTYYADSVKGRFTISRDNATNTVYLQMNSLKPEDTAVYYCNALRVDGGDYWGQGTQVTVSS | high polyreactivity |
| QVQLVESVRGLVQAGGSLRLSCAASGSTFDNNAMGWYRQAPGKEREFVAAITYSGGGSTSYADSVKGRFTISRDNAKNTVYLQMNSLKPEDPAVYDCAAREFETDGYSLVAYNYWGQGTQVTVSS | low polyreactivity |
| QVQLVESVRGSVQAGGSLRLSCAASGSTFYENAMGWYRPAPGKVRELVAAITWSGGRTYYADSVKGRFTISRDNAKNTVYLQMYSLKAEDTAVYYCNARARSRKFYYWGQGTQVTVSS | high polyreactivity |

| Sequence | polyreactivity (PSR sort gate) |
| --- | --- |
| QVQLVESVVGLVQAGGSLRLSCAASGSTFLPYTMGWYRQAPGKETELVAGISGSGPRTYYADSVKGRFTISRDNAKNTVYLQMNSLKPEDTAVYYCAKKSSYRYGYWGQGTQVTVSS | high polyreactivity |
| QVQLVESWAGLVQAGGSLRLSCAASGRTFAYNAMGGYRQAPGSERELVAAITWSGDSTYYADSVKGRFTISRDNAKKTVYLQMNSQKPEDTAVNYCAAGLVFHYYAPKSYYLGYDYWGQGTQVTVSS | low polyreactivity |
| QVQLVESWGCLVQAGGSLRLSCAASGFTFESNAMGWYRQAPGKERELVAAITSSGGRTYYADSVKGRFTISRVNAKNTVYLQMNSLNPEDSAVYYCAATGKAPRESGGVYSMDWGQGTQVTVSS | low polyreactivity |
| QVQLVESWGCLVQAGGSLRLSCAASRSTFLSYAMGWDRQAPGKERELVAAISWSGGRTYYADSVKGRFTISRDHAKNTVYLQMNSLKPDDSAVYYCNAGQGYRAPLYNLYDYWGQGTQVTVSS | low polyreactivity |
| QVQLVESWGGLDQAGGSLRLSCAASGIIFQYYAMGWYRQAPGKERELVAAISWSGGSTYYADSVKGRFTISRDNAKNTVYLQMNSLKPEDTAVYYCAARSRSYWPYEGDYWGQGSQVTVSS | low polyreactivity |
| QVQLVESWGGLDQAGGSLRLSCAASGRTIRRYAMGCYRQAPGKERELVASISTSGGSTNADSVKGRFTISRDNSKNTVYLQMNSLKPEDTAVYYCAVRYPRYVRNGDYWGQGTQVTVSS | high polyreactivity |
| QVQLVESWGGLVHAGGSLPLSCADSGITFFYYAMGWYRQAPGKEREFVAAISTSGGRTYYADSVKGRFTISRDNAKNTVYLQMNSLKPEDTAVYYCAARSRVPPAGPRYDYWGQGTQVTVSS | high polyreactivity |
| QVQLVESWGGLVQAGCSLRLSCAPSGSIFRTNAMGWYREAPGKQRELLAAITGSGGSTNYADSVKGRFTISRDNAKNTVYLQMNSLKPEDTADYYCAAEFGSLLSPYNYYYWGQGTQVTVSS | low polyreactivity |
| QVQLVESWGGLVQAGGNLRLSCAASGFIFTRYAMGWYRPAPGTERELVAAISTSGDRTYYADSVKGRFTISRDNAKNTVYLQMNSLKPEDTAVYYCAVVRPRSVVRYDYWGQGTQVTVSS | high polyreactivity |
| QVQLVESWGGLVQAGGRLRLSCAASGIIFHRNAMGWYRQAPGKQRELVAAISERGGSTYYADSVKGRFTISRDNAKNTVYLQMNSLKPEDTAVYYCIADGFYRGGYWGQGTQVTVSS | low polyreactivity |
| QVQLVESWGGLVQAGGSHRLSCAASGRTFGIYAMGWYRQAPGKERELVATISWRGGSTYYADSVKGRFTISRDNAKNTVYLQMNSLKPEDTAVYYCAAGYYPYWGQGTQVTVSS | low polyreactivity |
| QVQLVESWGGLVQAGGSLRLRCAASGSTSLGYAMGWYRQAPGKERELVASISWTGGGKYYADSVKGRFTISRDNAKNTVYLQMNSLKPEDTAVYYCAADLTGYHPYIYGYWGQVTQVTVSS | low polyreactivity |
| QVQLVESWGGLVQAGGSLRLSCAASGFIFRYYAMGWYRQAPGKERELVAAISWSGGSTYYADSVKGRFTISRDNAKYTVYLQMNSLKPVDTAVYYCAADKRGSVYLSSFWMDYWGQGSQVTVSS | low polyreactivity |
| QVQLVESWGGLVQAGGSLRLSCAASGFIMQWYAMGWDRQAPGKERELVAGISSGTSTYYADSVKGRFTISRDNAKNTVYFQMNSLKAEDTAVYYCTWFVFDPEDYWGQGTQVTVSS | low polyreactivity |
| QVQLVESWGGLVQAGGSLRLSCAASGFTFTGYAMGWYRQAPGKERELVAAISQSGGSTYADSVKGRFTISRDNAKNTVYLQMNSLKPEDTAVYYCAAVWFLLTEYDYWGQGTQVTVSS | low polyreactivity |
| QVQLVESWGGLVQAGGSLRLSCAASGIIFAAYAMGWYRQAPGKERELVATITSSGGSTFYADSVKGRFTISRDNAKNTVYLQMNSLKPEDTAVYYCAADTWGLWFWGPLFSKYGYWGQGTQVTVSS | low polyreactivity |
| QVQLVESWGGLVQAGGSLRLSCAASGIIFRYYAIGWYRKAPGKERELVAAISRSGARTYYADSVKGRFTISRDNAKNTVYLQMNSLKPEDTAVYYCATEPTSGRFYYWGQGTQVTVSS | high polyreactivity |
| QVQLVESWGGLVQAGGSLRLSCAASGRIFDRYAMGWYRQAPGKERELVASISSGGSTYYADSVKGRFTISRDNAKNTVYLQMNSLKPEDTAVYYCNAEARSRRYRYEYWGQGTQVTVSS | high polyreactivity |
| QVQLVESWGGLVQAGGSLRLSCAASGRIFSYYAMGWYRQAPGKERELVAAISRTGGTTYYADSVKGRFTISRDNAKNTVYLQMNSLKPEDTAVYYCNAVKAPYLRYDYWGQGTQVTVSS | high polyreactivity |
| QVQLVESWGGLVQAGGSLRLSCAASGRIFYGYAMAWYRQAPGKEREFVAAITVSAGSTYYADSVKGRFTISRDNAKNTVYLQMNSLKPEDTEVYYCAAKRYVYTSYRFVYWGQGTQVTVSS | low polyreactivity |
| QVQLVESWGGLVQAGGSLRLSCAASGSIFDVNAMGWYRQAPGKERELVAAISDSGGSTYYADSVKGRFTISRDNAKNTVYLQMNSLKPEDTAVYYCNADWSWYNYYDFDYWGQGTQVTVSS | low polyreactivity |

Reference: the nanobody polyreactivity screen of Harvey et al. (2022)
